Data reported in patent US20260049138A1 (Chugai, published 2026).
Where a chain is given by its changes, count along the chain named. Names and notes keep the numbering of the source.

B1: CE115HA000 K52bS one-arm antibody (antibody, human IgG1, kappa, L234A L235A, N297A, name in Kabat numbering)
heavy: QVQLVESGGGVVQPGRSLRLSCAASGFTFSNAWMHWVRQAPGKGLEWVAQIKASSNNYATYYAESVKGRFTISRDDSKNSLYLQMNSLKTEDTAVYYCRYVHYGAYYGVDAWGQGTTVTVSSASTKGPSVFPLAPSSKSTSGGTAALGCLVKDYFPEPVTVSWNSGALTSGVHTFPAVLQSSGLYSLSSVVTVPSSSLGTQTYICNVNHKPSNTKVDKKVEPKSCDKTHTCPPCPAPEAAGGPSVFLFPPKPKDTLMISRTPEVTCVVVDVSHEDPEVKFNWYVDGVEVHNAKTKPREEQYASTYRVVSVLTVLHQDWLNGKEYKCKVSNKALPAPIEKTISKAKGQPREPQVYTLPPSRCELTKNQVSLSCAVKGFYPSDIAVEWESNGQPENNYKTTPPVLDSDGSFFLVSKLTVDKSRWQQGNVFSCSVMHEALHNHYTQKSLSLSPDYKDDDDK
chain: EPKSSDKTHTCPPCPAPELLGGPSVFLFPPKPKDTLMISRTPEVTCVVVDVSHEDPEVKFNWYVDGVEVHNAKTKPREEQYNSTYRVVSVLTVLHQDWLNGKEYKCKVSNKALPAPIEKTISKAKGQPREPQVCTLPPSRDELTKNQVSLWCLVKGFYPSDIAVEWESNGQPENNYKTTPPVLDSDGSFFLYSKLTVDKSRWQQGNVFSCSVMHEALHNRYTQKSLSLSP
light: DIVMTQSPLSLPVTPGEPASISCRSSQSLVHSNRNTYLHWYQQKPGQAPRLLIYKVSNRFSGVPDRFSGSGSGTDFTLKISRVEAEDVGVYYCGQGTQVPYTFGQGTKLEIKRTVAAPSVFIFPPSDEQLKSGTASVVCLLNNFYPREAKVQWKVDNALQSGNSQESVTEQDSKDSTYSLSSTLTLSKADYEKHKVYACEVTHQGLSSPVTKSFNRGEC
B2: CE115HA000 N31W one-arm antibody (antibody, human IgG1, kappa, L234A L235A, N297A, name in Kabat numbering)
heavy: B1 heavy with N31W, S54K
chain: B1 chain
light: B1 light
B3: CE115HA000 K75R one-arm antibody (antibody, human IgG1, kappa, L234A L235A, N297A, name in Kabat numbering)
heavy: B1 heavy with S54K, K78R
chain: B1 chain
light: B1 light
B4: CE115HA000 N31H one-arm antibody (antibody, human IgG1, kappa, L234A L235A, N297A, name in Kabat numbering)
heavy: B1 heavy with N31H, S54K
chain: B1 chain
light: B1 light
B5: CE115HA000 K52bY one-arm antibody (antibody, human IgG1, kappa, L234A L235A, N297A, name in Kabat numbering)
heavy: B1 heavy with S54Y
chain: B1 chain
light: B1 light
B6: CE115HA000 K64S one-arm antibody (antibody, human IgG1, kappa, L234A L235A, N297A, name in Kabat numbering)
heavy: B1 heavy with S54K, K67S
chain: B1 chain
light: B1 light
B7: CE115HA000 N31I one-arm antibody (antibody, human IgG1, kappa, L234A L235A, N297A, name in Kabat numbering)
heavy: B1 heavy with N31I, S54K
chain: B1 chain
light: B1 light
B8: CE115HA000 K64E one-arm antibody (antibody, human IgG1, kappa, L234A L235A, N297A, name in Kabat numbering)
heavy: B1 heavy with S54K, K67E
chain: B1 chain
light: B1 light
B9: CE115HA000 N31R one-arm antibody (antibody, human IgG1, kappa, L234A L235A, N297A, name in Kabat numbering)
heavy: B1 heavy with N31R, S54K
chain: B1 chain
light: B1 light
B10: CE115HA000 N31S one-arm antibody (antibody, human IgG1, kappa, L234A L235A, N297A, name in Kabat numbering)
heavy: B1 heavy with N31S, S54K
chain: B1 chain
light: B1 light
B11: CE115HA000 K64A one-arm antibody (antibody, human IgG1, kappa, L234A L235A, N297A, name in Kabat numbering)
heavy: B1 heavy with S54K, K67A
chain: B1 chain
light: B1 light
B12: CE115HA000 K64D one-arm antibody (antibody, human IgG1, kappa, L234A L235A, N297A, name in Kabat numbering)
heavy: B1 heavy with S54K, K67D
chain: B1 chain
light: B1 light
B13: CE115HA000 N31K one-arm antibody (antibody, human IgG1, kappa, L234A L235A, N297A, name in Kabat numbering)
heavy: B1 heavy with N31K, S54K
chain: B1 chain
light: B1 light
B14: CE115HA000 N31A one-arm antibody (antibody, human IgG1, kappa, L234A L235A, N297A, name in Kabat numbering)
heavy: B1 heavy with N31A, S54K
chain: B1 chain
light: B1 light
notes: One-arm antibody: altered VH-pE22Hh, Kn010G3, GLS3000-kappa; The same holds for m64 to m321
B15: CE115HA000 N31D one-arm antibody (antibody, human IgG1, kappa, L234A L235A, N297A, name in Kabat numbering)
heavy: B1 heavy with N31D, S54K
chain: B1 chain
light: B1 light
B16: CE115HA000 L78I one-arm antibody (antibody, human IgG1, kappa, L234A L235A, N297A, name in Kabat numbering)
heavy: B1 heavy with S54K, L81I
chain: B1 chain
light: B1 light
B17: CE115HA000 N31Q one-arm antibody (antibody, human IgG1, kappa, L234A L235A, N297A, name in Kabat numbering)
heavy: B1 heavy with N31Q, S54K
chain: B1 chain
light: B1 light
B18: CE115HA000 K64Q one-arm antibody (antibody, human IgG1, kappa, L234A L235A, N297A, name in Kabat numbering)
heavy: B1 heavy with S54K, K67Q
chain: B1 chain
light: B1 light
B19: CE115HA000 N31F one-arm antibody (antibody, human IgG1, kappa, L234A L235A, N297A, name in Kabat numbering)
heavy: B1 heavy with N31F, S54K
chain: B1 chain
light: B1 light
B20: CE115HA000 K75T one-arm antibody (antibody, human IgG1, kappa, L234A L235A, N297A, name in Kabat numbering)
heavy: B1 heavy with S54K, K78T
chain: B1 chain
light: B1 light
B21: CE115HA000 N31G one-arm antibody (antibody, human IgG1, kappa, L234A L235A, N297A, name in Kabat numbering)
heavy: B1 heavy with N31G, S54K
chain: B1 chain
light: B1 light
B22: CE115HA000 N31Y one-arm antibody (antibody, human IgG1, kappa, L234A L235A, N297A, name in Kabat numbering)
heavy: B1 heavy with N31Y, S54K
chain: B1 chain
light: B1 light

molecular target: T1, CD3ε homodimer protein (human, UniProt P07766 23-126, limits assumed, sulfo-tag or biotin label in the ECL assays; amine-coupled to the chip in SPR); test: SPR Biacore T200; CD3ε homodimer on CM4 chip;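 note: Single-residue variant antibodies injected as analyte over CD3ε homodimer immobilized by amine coupling, run at 25 °C in HBS-EP+ buffer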
T1 construct: also called human CD3ε homodimer protein; CD3 (CD3ε)
T1 sequence (P07766 23-126 limits assumed): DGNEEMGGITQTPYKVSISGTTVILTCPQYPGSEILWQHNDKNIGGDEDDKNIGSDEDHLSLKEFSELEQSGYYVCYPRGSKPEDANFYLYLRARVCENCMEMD

ratio of amounts bound Z=Y/X (altered form / CE115HA000)	Binder
0.68	B1
0.63	B2
1.01	B3
0.68	B4
0.74	B5
0.84	B6
0.81	B7
0.74	B8
1.14	B9
0.81	B10
0.82	B11
0.72	B12
1.01	B13
0.5	B14
0.37	B15
1.34	B16
0.49	B17
0.89	B18
0.62	B19
0.84	B20
0.39	B21
0.64	B22
